# From paper PMC10460880, “Cathepsin K‐Activated Probe for Fluoro‐Photoacoustic Imaging of Early Osteolytic Metastasis” (Advanced Science, 2023)
# Test: Fluorescence quantum yield and molar extinction coefficient
# Type: physicochemical
# Details: MES buffer 50 mM pH 6.0, 0.1% DMSO
# Method: Determination of the fluorescence quantum yield and molar extinction coefficient.
# Fluorescence quantum yield (Φf) was determined by using ICG (Φf = 0.13 in DMSO) as a fluorescence standard. The quantum yield was calculated using the following equation: ΦF(X) = ΦF(S) (ASFX / AXFS) (nX / nS)2, Where ΦF is the fluorescence quantum yield, A is the absorbance at the excitation wavelength, F is the area under the corrected emission curve, and n is the refractive index of the solvents used. Subscripts S and X refer to the standard and to the unknown, respectively. The excitation wavelength was at 690 nm while keeping the absorption below 0.05. To calculate the molar extinction coefficient (ε), the absorption at 690 nm of different concentrations of the CTSK-APPA before or after CTSK cleavage (0, 0.5, 1, 2, 5, 10 μM) was measured. According to the Lambert-Beer law, the extinction coefficient was the slope of the fitted curve between concentration and absorption. Both fluorescence quantum yield and extinction coefficient were measured in MES buffer (50 mM, pH 6.0) containing 0.1% DMSO. […]
substance,measurement,setting,value
Cbz‐Leu‐Arg‐OH [CTSK-APPA],fluorescence quantum yield (Φf) after CTSK cleavage,"ICG standard, Ex 690 nm",3.5%
same,fluorescence quantum yield (Φf) before CTSK cleavage,"ICG standard, Ex 690 nm",0.5%
same,molar extinction coefficient ε after CTSK cleavage,"absorption at 690 nm, 0-10 μM",50230 M⁻¹ cm⁻¹
same,molar extinction coefficient ε before CTSK cleavage,"absorption at 690 nm, 0-10 μM",28580 M⁻¹ cm⁻¹
